Source: publication PMC11706664, “Structure of WzxE the lipid III flippase for Enterobacterial Common Antigen polysaccharide” (Open Biology, 2025)

Assays:
[1] = target: T1, WzxE-Nb10 complex (WzxE held on immobilised biotinylated Nb10-strep II) (Escherichia coli K-12 MG1655 (WzxE), V inserted between M1 and S2 (worked out from the letters of primer WzxE-F, …, biotin (EZ-link Sulfo-NHS-LC Biotin kit))); test: ELISA; nanobodies screened on the WzxE-Nb10 complex held on Streptactin-coated plates by biotinylated Nb10-strep II; anti-His HRP antibody, read at 410 nm; room temperature; the step of adding the nanobodies is not described
T1 construct: WzxE, E. coli K-12 MG1655, as the chain of m1 (purified in DDM); as the chain of m4 (Nb10 with strep II tag); A complex of a natural membrane protein and a nanobody, so that no single origin fits; not shown: His10, C-terminal, cleaved; strep II, C-terminal, kept
T1 chain: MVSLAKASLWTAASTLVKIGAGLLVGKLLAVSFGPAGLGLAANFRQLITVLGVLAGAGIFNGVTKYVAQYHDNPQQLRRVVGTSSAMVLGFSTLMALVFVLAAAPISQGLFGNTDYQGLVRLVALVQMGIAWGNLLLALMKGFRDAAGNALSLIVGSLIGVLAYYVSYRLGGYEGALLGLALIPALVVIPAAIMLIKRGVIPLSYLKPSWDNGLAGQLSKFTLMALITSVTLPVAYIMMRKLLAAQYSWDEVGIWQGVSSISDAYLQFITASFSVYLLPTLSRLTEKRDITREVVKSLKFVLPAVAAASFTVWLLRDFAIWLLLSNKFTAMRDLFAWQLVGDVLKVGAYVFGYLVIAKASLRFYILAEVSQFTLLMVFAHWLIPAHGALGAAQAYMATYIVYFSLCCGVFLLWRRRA

[2] = target: T2, WzxE, the lipid III flippase from Escherichia coli (E. coli K-12 MG1655, UniProt P0AAA7, V inserted between M1 and S2 (worked out from the letters of primer WzxE-F, …)); test: crystal structure; WzxE-Nb10-Nb7 complex (Nb7 added to pre-formed WzxE-Nb10), with und-PP-GlcNAc or nerol-PP-GlcNAc added, lipidic cubic phase, 20°C; outward-facing conformation (PDB 9G9M, 9G9O); conditions: both partners purified
T2 construct: His10 removed with TEV protease; Residues of the XhoI site and of the TEV site probably stay at the C-terminus after cleavage (surmise); The same construct purified in DDM only was used in the ELISA; also called chain A; source: E. coli C43(DE3), purified from membranes (DM extraction with DDM/OGNG purification, or DDM only; nickel NTA, TEV cleavage, reverse IMAC, SEC); not shown: His10, …

[3] = target: T2, WzxE, the lipid III flippase from …; test: SEC; WzxE incubated with nanobody at molar ratio 1:1.2 WzxE:Nb for 2 h at 4°C; co-elution on size exclusion chromatography in buffer B (25 mM Tris pH 7.5, 150 mM NaCl, 5% glycerol, OGNG, DDM); conditions: both partners purified
[4] = target: T2, WzxE, the lipid III flippase from …; test: ELISA; biotinylated Nb10-strep II (1.62 µM/well) bound on Streptactin-coated plates; WzxE purified in DDM added at 2.78 µM for 1 h; room temperature, 25 mM Tris pH 7.5, 150 mM NaCl, 0.02% DDM, 0.1% BSA, 0.05% Tween-20; conditions: both partners purified

B1: nanobody Nb7 (CA12482) (VHH)
VHH: QVQLVESGGGLVQAGDSLTLSCAASGRTAYRYGMGWFRQHPGKEREFVASIWWTGTTTYYADSVKGRFTISRDDVKNMVYLQMNSLKPEDTAVYYCAAKFYGGNSKRPGDYAYWGQGTQVTVSS
notes: Raised by llama immunization with WzxE (Nanobody4Instruct), in plasmid pMESy4; In the ELISA it was probably detected by the anti-His HRP antibody (surmise; the methods leave out the step); also called chain C; source: E. coli WK6 (su-), purified (His-Trap, SEC)
B1: binds [1]; binds [2].

B2: nanobody Nb10 (CA12485) (VHH)
VHH: QVQLVESGGGLVQAGGSLGLSCAASGRTFSNYVMAWFRQAPGKEREFVARISESRGTTDYADSVKGRFTISRDNAKNTIYLQMNSLNPGDTAVYSCAATLPAWTGIIGGRRPGNYPYWGQGTQVTVSS
notes: Raised by llama immunization with WzxE (Nanobody4Instruct), in plasmid pMESy4; also called chain B; source: E. coli WK6 (su-), purified (His-Trap, SEC)
B2: binds [3].

B3: biotinylated Nb10-Strep II tagged protein (VHH)
VHH: B2 VHH
notes: as the chain of m2 (Nb10), with the C-terminal hexa-histidine tag exchanged for a strep II tag; source: E. coli WK6 (su-), purified (Strep-tactin beads, SEC), biotinylated; not shown: strep II, C-terminal, kept
B3: binds [4].
